Measurements reported in patent US20160002331A1.
Where two headings read alike, the source gives them in different places. One block for each substance: values may come before it.

What was measured:
[1] = target: human Notch1 NRR_Avi_His recombinant protein (human) (UniProt P46531); assay: SPR (Biacore T100), antibody captured by anti-human IgG-Fc, NRR_Avi_His as analyte, 1:1 Langmuir model
[2] = target: full-length human Notch1 expressed on the cell surface (human) (UniProt P46531); assay: cell-based or functional assay
[3] = target: full-length mouse Notch1 expressed on the cell surface of U-2 OS cells (mouse) (UniProt Q01705); assay: cell-based or functional assay
Chain of full-length mouse Notch1 expressed on the cell surface of U-2 OS cells (mouse) (Q01705 19-2531): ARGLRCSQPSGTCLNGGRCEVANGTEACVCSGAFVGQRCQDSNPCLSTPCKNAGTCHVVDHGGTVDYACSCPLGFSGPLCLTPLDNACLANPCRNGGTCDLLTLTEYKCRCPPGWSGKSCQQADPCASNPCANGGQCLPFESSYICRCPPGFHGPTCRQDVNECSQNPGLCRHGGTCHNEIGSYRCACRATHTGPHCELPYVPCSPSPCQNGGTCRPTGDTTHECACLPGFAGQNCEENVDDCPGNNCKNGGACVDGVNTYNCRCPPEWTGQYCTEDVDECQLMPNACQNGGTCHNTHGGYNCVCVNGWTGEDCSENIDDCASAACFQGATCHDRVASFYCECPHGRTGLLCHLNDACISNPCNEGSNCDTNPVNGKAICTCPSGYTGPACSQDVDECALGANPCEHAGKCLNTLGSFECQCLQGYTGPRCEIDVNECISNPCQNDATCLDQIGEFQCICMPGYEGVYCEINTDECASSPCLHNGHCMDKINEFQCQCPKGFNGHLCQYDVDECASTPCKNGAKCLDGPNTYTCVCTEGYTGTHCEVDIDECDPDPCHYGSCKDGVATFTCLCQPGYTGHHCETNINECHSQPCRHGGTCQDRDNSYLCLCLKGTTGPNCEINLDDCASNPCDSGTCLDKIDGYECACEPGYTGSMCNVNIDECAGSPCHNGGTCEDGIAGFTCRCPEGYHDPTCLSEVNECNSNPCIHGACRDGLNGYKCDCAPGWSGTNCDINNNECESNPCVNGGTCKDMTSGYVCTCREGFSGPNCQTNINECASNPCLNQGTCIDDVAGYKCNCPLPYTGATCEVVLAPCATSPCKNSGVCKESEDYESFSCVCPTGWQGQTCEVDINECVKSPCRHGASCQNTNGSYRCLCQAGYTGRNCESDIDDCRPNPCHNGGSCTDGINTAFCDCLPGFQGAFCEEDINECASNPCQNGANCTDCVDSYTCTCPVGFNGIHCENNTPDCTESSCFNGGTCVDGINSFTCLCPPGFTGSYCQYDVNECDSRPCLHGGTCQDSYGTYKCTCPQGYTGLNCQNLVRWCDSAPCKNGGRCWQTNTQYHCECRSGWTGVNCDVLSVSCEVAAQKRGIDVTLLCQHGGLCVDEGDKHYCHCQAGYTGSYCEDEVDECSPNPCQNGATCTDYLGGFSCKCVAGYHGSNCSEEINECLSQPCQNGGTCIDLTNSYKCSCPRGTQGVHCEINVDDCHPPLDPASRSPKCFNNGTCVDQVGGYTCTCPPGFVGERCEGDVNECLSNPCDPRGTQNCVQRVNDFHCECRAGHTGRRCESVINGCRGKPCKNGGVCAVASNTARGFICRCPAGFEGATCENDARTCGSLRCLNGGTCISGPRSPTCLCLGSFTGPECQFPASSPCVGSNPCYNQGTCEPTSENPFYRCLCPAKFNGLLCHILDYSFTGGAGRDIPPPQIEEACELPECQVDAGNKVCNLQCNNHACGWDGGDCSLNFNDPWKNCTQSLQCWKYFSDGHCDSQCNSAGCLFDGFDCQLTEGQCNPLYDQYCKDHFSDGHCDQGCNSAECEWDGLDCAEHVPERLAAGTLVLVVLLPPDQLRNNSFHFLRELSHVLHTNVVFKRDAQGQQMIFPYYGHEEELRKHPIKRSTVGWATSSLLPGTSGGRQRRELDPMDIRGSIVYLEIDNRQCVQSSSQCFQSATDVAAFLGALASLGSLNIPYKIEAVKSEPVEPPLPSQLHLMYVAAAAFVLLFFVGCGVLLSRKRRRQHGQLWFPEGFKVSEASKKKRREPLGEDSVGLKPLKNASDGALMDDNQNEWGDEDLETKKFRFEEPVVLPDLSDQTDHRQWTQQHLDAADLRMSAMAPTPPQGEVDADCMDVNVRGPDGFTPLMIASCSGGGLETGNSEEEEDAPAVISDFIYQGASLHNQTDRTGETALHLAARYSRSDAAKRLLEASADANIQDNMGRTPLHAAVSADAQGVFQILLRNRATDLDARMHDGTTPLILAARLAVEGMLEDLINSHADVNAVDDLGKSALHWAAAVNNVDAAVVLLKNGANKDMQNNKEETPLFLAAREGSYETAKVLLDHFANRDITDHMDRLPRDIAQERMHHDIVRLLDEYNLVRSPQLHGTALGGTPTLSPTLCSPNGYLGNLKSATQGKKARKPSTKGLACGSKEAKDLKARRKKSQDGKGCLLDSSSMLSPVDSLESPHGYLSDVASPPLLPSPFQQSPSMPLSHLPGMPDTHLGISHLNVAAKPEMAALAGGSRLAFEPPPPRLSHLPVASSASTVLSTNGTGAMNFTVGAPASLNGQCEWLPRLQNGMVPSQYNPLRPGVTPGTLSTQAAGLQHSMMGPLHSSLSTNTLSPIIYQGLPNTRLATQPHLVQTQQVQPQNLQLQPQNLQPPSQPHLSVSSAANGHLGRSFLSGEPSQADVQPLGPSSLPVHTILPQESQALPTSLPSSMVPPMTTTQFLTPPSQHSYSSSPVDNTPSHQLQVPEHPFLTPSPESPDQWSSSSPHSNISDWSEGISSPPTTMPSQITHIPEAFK

[4] = target: full-length human Notch1 expressed on the cell surface (human) (UniProt P46531); assay: cell-based or functional assay; remark: listed apart in the source
[5] = target: Notch1 receptor with L1594P mutation (ALL-SIL cells) (UniProt P46531); assay: cell-based or functional assay
[6] = target: Notch1 receptor with a 12 amino acid insertion at position 1595 (CCRF-CEM cells) (UniProt P46531); assay: cell-based or functional assay
Chain of Notch1 receptor with a 12 amino acid insertion at position 1595 (CCRF-CEM cells) (P46531 other isoform, or with tags, fused parts or gaps limits assumed): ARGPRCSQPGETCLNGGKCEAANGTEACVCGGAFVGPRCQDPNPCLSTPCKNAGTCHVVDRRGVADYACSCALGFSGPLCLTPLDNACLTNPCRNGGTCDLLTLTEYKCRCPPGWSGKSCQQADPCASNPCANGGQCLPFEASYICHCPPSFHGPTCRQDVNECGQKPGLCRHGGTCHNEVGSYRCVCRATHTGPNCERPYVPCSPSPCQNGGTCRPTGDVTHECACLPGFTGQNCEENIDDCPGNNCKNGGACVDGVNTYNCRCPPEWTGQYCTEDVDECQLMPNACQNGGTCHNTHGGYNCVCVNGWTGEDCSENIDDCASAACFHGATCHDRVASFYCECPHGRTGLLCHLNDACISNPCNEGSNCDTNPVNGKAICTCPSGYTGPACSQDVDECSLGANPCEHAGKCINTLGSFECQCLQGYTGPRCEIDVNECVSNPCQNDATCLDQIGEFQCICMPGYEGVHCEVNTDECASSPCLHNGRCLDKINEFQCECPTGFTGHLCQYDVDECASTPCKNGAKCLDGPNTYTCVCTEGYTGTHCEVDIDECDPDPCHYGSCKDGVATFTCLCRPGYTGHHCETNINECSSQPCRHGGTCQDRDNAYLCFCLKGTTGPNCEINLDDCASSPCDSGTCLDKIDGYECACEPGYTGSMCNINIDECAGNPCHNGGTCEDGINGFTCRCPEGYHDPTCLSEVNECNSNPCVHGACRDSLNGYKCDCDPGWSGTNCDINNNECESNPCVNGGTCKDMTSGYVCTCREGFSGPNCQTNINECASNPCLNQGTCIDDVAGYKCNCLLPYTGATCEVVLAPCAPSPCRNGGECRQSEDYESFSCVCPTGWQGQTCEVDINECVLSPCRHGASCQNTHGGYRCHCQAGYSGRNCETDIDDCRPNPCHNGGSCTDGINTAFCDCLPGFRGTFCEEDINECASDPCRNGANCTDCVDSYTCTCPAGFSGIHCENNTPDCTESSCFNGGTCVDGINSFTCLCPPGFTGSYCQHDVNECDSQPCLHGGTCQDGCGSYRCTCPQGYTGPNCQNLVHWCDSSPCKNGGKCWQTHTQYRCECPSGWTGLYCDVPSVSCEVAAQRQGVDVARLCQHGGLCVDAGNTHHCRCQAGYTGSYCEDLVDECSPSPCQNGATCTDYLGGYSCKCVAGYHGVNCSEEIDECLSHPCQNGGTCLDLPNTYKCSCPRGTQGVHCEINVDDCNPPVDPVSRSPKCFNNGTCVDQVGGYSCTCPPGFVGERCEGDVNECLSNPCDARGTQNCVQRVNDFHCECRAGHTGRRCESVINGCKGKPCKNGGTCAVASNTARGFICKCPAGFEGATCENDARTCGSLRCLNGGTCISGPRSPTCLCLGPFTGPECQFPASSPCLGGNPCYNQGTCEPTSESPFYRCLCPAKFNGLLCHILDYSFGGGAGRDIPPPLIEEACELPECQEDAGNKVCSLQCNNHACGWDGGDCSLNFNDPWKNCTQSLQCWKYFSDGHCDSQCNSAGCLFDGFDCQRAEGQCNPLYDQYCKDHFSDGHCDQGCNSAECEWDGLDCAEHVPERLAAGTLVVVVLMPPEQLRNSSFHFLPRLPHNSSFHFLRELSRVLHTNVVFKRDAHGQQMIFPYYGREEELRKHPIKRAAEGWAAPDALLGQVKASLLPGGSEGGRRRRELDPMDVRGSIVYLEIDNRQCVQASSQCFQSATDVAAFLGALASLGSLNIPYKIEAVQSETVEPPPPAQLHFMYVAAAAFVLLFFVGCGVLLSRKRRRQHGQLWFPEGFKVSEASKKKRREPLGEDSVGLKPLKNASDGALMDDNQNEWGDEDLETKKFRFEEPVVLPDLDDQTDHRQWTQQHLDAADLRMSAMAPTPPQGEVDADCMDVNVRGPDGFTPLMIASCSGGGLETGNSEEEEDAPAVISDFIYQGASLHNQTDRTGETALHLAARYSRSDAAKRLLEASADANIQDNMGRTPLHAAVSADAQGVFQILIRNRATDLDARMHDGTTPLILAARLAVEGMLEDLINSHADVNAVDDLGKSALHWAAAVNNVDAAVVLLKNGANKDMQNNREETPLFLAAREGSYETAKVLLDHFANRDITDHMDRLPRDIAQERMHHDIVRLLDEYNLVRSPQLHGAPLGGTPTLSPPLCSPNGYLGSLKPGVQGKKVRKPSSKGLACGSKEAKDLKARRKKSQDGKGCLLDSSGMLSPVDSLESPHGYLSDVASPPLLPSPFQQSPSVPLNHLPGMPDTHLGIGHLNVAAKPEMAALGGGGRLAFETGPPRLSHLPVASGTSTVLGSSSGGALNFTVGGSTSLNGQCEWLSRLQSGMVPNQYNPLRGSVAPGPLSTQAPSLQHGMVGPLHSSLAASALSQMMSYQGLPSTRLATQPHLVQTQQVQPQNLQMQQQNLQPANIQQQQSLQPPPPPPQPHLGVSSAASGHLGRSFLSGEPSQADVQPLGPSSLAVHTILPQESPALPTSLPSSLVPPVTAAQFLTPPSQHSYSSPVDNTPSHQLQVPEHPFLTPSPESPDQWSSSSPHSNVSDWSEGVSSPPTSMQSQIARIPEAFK

[7] = target: Notch1 receptor with L1601P mutation (MOLT-4 cells) (UniProt P46531); assay: cell-based or functional assay
[8] = target: full-length mouse Notch1 expressed on the cell surface of U-2 OS cells (mouse) (UniProt Q01705); assay: cell-based or functional assay; remark: listed apart in the source
[9] = target: Notch1 receptor with L1594P/D1610V mutations (DND-41 cells) (UniProt P46531); assay: cell-based or functional assay
[10] = target: Notch1 receptor with a 17 amino acid insertion at position 1740 (Jurkat cells) (UniProt P46531); assay: cell-based or functional assay
[11] = target: Notch1 receptor with L1575P mutation (HPB-ALL cells) (UniProt P46531); assay: cell-based or functional assay

Kd [1]: 2.94 nM
Neutralization activity (Human RGA), % Inhibition [2]: 99.1%
Neutralization activity (Human RGA), IC50 [2]: 0.27 nM
Neutralization activity (murine RGA), % Inhibition [3]: 82%
Neutralization activity (murine RGA), IC50 [3]: 0.36 nM
Firefly/Renilla Luminescence, human Notch1 reporter cells + 5 mM EDTA, 0.01 µg/mL antibody (Firefly/Renilla ratio) [4]: 312
Firefly/Renilla Luminescence, human Notch1 reporter cells + 5 mM EDTA, 0.1 µg/mL antibody (Firefly/Renilla ratio) [4]: 172
Firefly/Renilla Luminescence, human Notch1 reporter cells + 5 mM EDTA, 1 µg/mL antibody (Firefly/Renilla ratio) [4]: 89.9
Firefly/Renilla Luminescence, human Notch1 reporter cells + 5 mM EDTA, 10 µg/mL antibody (Firefly/Renilla ratio) [4]: 63.5
Firefly/Renilla Luminescence, human Notch1 reporter cells + 5 mM EDTA, 30 µg/mL antibody (Firefly/Renilla ratio) [4]: 55.2
IC50, Notch1 signaling inhibition co-culture reporter assay [4]: 0.18 nM
IC50, human Notch1 reporter gene co-culture assay (DLL4-HEK293) [4]: 0.31 nM
Maximal Inhibition (%), Notch1 signaling inhibition co-culture reporter assay [4]: 97.7%
Neutralization activity (Human RGA), % Inhibition (maximal) [4]: 100%
Neutralization activity (Human RGA), IC50 [4]: 0.3 nM
Normalized Notch1^ICD level, CCD1076SK fibroblasts on DLL4, 0.001 µg/ml antibody (relative to untreated) [4]: 0.748
Normalized Notch1^ICD level, CCD1076SK fibroblasts on DLL4, 0.01 µg/ml antibody (relative to untreated) [4]: 0.402
Normalized Notch1^ICD level, CCD1076SK fibroblasts on DLL4, 0.1 µg/ml antibody (relative to untreated) [4]: 0.003
Normalized Notch1^ICD level, CCD1076SK fibroblasts on DLL4, 1 µg/ml antibody (relative to untreated) [4]: 0.003
Normalized Notch1^ICD level, CCD1076SK fibroblasts on DLL4, 10 µg/ml antibody (relative to untreated) [4]: 0.006
Normalized Notch1^ICD level, ALL-SIL cells, 0.001 µg/ml antibody (relative to untreated) [5]: 1.56
Normalized Notch1^ICD level, ALL-SIL cells, 0.01 µg/ml antibody (relative to untreated) [5]: 1.31
Normalized Notch1^ICD level, ALL-SIL cells, 0.1 µg/ml antibody (relative to untreated) [5]: 0.068
Normalized Notch1^ICD level, ALL-SIL cells, 1 µg/ml antibody (relative to untreated) [5]: 0.033
Normalized Notch1^ICD level, ALL-SIL cells, 10 µg/ml antibody (relative to untreated) [5]: 0.043
Normalized Notch1^ICD level, CCRF-CEM cells, 0.001 µg/ml antibody (relative to untreated) [6]: 1.12
Normalized Notch1^ICD level, CCRF-CEM cells, 0.01 µg/ml antibody (relative to untreated) [6]: 1.28
Normalized Notch1^ICD level, CCRF-CEM cells, 0.1 µg/ml antibody (relative to untreated) [6]: 0.424
Normalized Notch1^ICD level, CCRF-CEM cells, 1 µg/ml antibody (relative to untreated) [6]: 0.048
Normalized Notch1^ICD level, CCRF-CEM cells, 10 µg/ml antibody (relative to untreated) [6]: 0.027
Normalized Notch1^ICD level, MOLT-4 cells, 0.01 µg/ml antibody (relative to untreated) [7]: 0.962
Normalized Notch1^ICD level, MOLT-4 cells, 0.1 µg/ml antibody (relative to untreated) [7]: 0.644
Normalized Notch1^ICD level, MOLT-4 cells, 10 µg/ml antibody (relative to untreated) [7]: 0.043
IC50, mouse Notch1 reporter gene co-culture assay (DLL4-HEK293) [8]: 0.32 nM
Neutralization activity (murine RGA), % Inhibition (maximal) [8]: 86%
Neutralization activity (murine RGA), IC50 [8]: 0.2 nM
Normalized Notch1^ICD level, DND-41 cells, 0.001 µg/ml antibody (relative to untreated) [9]: 0.787
Normalized Notch1^ICD level, DND-41 cells, 0.01 µg/ml antibody (relative to untreated) [9]: 0.84
Normalized Notch1^ICD level, DND-41 cells, 0.1 µg/ml antibody (relative to untreated) [9]: 0.479
Normalized Notch1^ICD level, DND-41 cells, 1 µg/ml antibody (relative to untreated) [9]: 0.199
Normalized Notch1^ICD level, DND-41 cells, 10 µg/ml antibody (relative to untreated) [9]: 0.114
Normalized Notch1^ICD level, Jurkat cells, 0.001 µg/ml antibody (relative to untreated) [10]: 1.2
Normalized Notch1^ICD level, Jurkat cells, 0.01 µg/ml antibody (relative to untreated) [10]: 1.17
Normalized Notch1^ICD level, Jurkat cells, 0.1 µg/ml antibody (relative to untreated) [10]: 0.983
Normalized Notch1^ICD level, Jurkat cells, 1 µg/ml antibody (relative to untreated) [10]: 1.15
Normalized Notch1^ICD level, Jurkat cells, 10 µg/ml antibody (relative to untreated) [10]: 1.59
Normalized Notch1^ICD level, HPB-ALL cells, 0.001 µg/ml antibody (relative to untreated) [11]: 0.852
Normalized Notch1^ICD level, HPB-ALL cells, 0.01 µg/ml antibody (relative to untreated) [11]: 1.15
Normalized Notch1^ICD level, HPB-ALL cells, 0.1 µg/ml antibody (relative to untreated) [11]: 0.33
Normalized Notch1^ICD level, HPB-ALL cells, 1 µg/ml antibody (relative to untreated) [11]: 0.038
Normalized Notch1^ICD level, HPB-ALL cells, 10 µg/ml antibody (relative to untreated) [11]: 0.041
Substance: A2 antibody (Wu, Y. et al., Nature 464:1052-1057, 2010)
IC50, MTS viability assay of HPB-ALL leukemia cells [11]: 1.85 nM

Firefly/Renilla Luminescence, human Notch1 reporter cells + 5 mM EDTA, 0.01 µg/mL antibody (Firefly/Renilla ratio) [4]: 267
Firefly/Renilla Luminescence, human Notch1 reporter cells + 5 mM EDTA, 0.1 µg/mL antibody (Firefly/Renilla ratio) [4]: 299
Firefly/Renilla Luminescence, human Notch1 reporter cells + 5 mM EDTA, 1 µg/mL antibody (Firefly/Renilla ratio) [4]: 278
Firefly/Renilla Luminescence, human Notch1 reporter cells + 5 mM EDTA, 10 µg/mL antibody (Firefly/Renilla ratio) [4]: 257
Firefly/Renilla Luminescence, human Notch1 reporter cells + 5 mM EDTA, 30 µg/mL antibody (Firefly/Renilla ratio) [4]: 229
Substance: control anti-E. tenella antibody
